Test results: patent US20190111149A1, “ANTI-EGFR ANTIBODY DRUG CONJUGATE” (priority 2016, published 2019)

Columns and labels:
MBI_CD19_1; (SAR3419) [1] = experiment: BLI Octet, antibody on anti-human Fc tip, peptide […]
MBI_CD19_2; (MOR208) [2] = experiment: as above
[3] = target: Meditope enabled Clivatuzumab; experiment: as above
[4] = target: Meditope enabled Ocaratuzumab; experiment: as above
[5] = target: Photo optimized trastuzumab; meditope enabled (Tmab); experiment: as above
MBI_CD19_1; (SAR3419) [6] = experiment: BLI Octet, antibody on anti-human Fc tip, peptide 37 nM
MBI_CD19_2; (MOR208) [7] = experiment: as above
[8] = target: Meditope enabled Ocaratuzumab; experiment: as above
[9] = target: Photo optimized trastuzumab; meditope enabled (Tmab); experiment: as above
MBI_CD19_1; (SAR3419) [10] = experiment: BLI Octet, antibody on anti-human Fc tip, peptide 333 nM
MBI_CD19_2; (MOR208) [11] = experiment: as above
[12] = target: Meditope enabled Clivatuzumab; experiment: as above
[13] = target: Photo optimized trastuzumab; meditope enabled (Tmab); experiment: as above

Sequence of MBI_CD19_2; (MOR208) (chain, as listed by the source, chain 1 of 2): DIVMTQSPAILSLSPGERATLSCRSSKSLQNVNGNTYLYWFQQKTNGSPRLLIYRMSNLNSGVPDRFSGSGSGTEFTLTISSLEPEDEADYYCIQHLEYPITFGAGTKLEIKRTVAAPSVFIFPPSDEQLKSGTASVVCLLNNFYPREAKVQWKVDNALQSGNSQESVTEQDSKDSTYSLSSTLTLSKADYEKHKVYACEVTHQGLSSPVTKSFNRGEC
Sequence of MBI_CD19_2; (MOR208) (chain, as listed by the source, chain 2 of 2): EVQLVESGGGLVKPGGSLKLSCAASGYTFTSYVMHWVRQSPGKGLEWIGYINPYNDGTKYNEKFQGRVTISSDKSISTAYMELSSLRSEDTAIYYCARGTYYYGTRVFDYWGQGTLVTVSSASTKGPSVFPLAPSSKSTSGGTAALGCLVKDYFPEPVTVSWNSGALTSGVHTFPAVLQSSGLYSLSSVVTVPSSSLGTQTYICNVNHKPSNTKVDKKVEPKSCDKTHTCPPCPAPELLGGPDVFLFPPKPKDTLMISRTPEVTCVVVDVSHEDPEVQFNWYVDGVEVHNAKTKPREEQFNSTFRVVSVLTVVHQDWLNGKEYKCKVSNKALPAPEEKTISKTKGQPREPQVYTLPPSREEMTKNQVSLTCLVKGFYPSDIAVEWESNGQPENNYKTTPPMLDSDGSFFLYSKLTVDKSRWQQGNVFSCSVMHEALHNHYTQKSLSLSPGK
Sequence of Photo optimized trastuzumab; meditope enabled (Tmab) (chain, as listed by the source, chain 1 of 2): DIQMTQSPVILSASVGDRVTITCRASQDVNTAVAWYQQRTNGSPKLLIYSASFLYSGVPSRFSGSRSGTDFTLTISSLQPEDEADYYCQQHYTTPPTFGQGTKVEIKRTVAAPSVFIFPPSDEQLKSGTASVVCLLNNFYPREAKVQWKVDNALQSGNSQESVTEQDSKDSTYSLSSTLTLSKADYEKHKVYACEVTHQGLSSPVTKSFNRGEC
Sequence of Photo optimized trastuzumab; meditope enabled (Tmab) (chain, as listed by the source, chain 2 of 2): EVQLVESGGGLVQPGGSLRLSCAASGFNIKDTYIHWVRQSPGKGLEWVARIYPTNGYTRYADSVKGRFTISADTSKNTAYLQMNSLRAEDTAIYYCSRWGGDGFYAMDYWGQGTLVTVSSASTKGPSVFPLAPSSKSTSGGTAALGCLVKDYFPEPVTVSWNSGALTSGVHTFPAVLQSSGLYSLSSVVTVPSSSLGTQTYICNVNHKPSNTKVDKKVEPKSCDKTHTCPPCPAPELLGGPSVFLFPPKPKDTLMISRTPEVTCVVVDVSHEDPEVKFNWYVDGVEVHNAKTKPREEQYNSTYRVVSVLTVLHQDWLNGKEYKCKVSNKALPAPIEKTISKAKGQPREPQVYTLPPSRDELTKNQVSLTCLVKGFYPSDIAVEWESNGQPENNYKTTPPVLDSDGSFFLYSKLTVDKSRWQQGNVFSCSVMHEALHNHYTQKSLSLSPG
Sequence of MBI_CD19_1; (SAR3419) (chain, as listed by the source, chain 1 of 2): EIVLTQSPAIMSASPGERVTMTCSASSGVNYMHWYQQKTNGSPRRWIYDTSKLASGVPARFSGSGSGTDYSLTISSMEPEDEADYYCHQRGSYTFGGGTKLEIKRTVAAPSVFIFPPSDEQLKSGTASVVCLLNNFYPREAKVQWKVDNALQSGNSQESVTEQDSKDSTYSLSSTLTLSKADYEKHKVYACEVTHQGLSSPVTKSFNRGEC
Sequence of MBI_CD19_1; (SAR3419) (chain, as listed by the source, chain 2 of 2): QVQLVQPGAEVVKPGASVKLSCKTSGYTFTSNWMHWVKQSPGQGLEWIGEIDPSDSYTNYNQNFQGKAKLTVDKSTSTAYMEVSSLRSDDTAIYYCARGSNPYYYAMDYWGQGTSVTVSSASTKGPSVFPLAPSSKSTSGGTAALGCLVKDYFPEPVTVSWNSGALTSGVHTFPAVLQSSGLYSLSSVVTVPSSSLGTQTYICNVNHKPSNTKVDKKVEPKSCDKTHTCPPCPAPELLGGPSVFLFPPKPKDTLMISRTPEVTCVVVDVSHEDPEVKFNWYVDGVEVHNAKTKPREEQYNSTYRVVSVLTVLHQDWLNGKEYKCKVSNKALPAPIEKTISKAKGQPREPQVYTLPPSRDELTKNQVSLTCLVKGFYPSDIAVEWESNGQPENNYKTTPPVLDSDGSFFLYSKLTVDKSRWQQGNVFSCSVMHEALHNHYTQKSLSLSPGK
Sequence of Meditope enabled Clivatuzumab (chain, as listed by the source, chain 1 of 2): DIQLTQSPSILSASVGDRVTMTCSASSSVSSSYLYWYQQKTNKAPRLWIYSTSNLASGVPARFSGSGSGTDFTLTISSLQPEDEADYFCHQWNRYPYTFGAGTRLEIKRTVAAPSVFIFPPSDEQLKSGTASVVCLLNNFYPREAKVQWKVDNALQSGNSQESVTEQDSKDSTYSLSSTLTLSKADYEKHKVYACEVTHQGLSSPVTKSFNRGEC
Sequence of Meditope enabled Clivatuzumab (chain, as listed by the source, chain 2 of 2): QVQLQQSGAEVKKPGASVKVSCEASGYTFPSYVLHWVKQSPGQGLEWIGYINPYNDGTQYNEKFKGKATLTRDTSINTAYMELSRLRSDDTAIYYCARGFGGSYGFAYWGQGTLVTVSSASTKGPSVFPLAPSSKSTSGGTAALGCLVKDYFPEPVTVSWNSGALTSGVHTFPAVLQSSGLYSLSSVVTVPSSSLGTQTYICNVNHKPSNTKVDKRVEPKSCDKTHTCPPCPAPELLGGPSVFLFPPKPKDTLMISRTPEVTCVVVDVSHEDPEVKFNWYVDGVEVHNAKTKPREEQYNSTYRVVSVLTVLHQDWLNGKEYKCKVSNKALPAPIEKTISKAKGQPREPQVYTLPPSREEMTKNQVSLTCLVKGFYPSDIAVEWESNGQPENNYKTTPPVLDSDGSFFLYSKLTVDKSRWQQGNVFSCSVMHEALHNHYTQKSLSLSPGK
Sequence of Meditope enabled Ocaratuzumab (chain, as listed by the source, chain 1 of 2): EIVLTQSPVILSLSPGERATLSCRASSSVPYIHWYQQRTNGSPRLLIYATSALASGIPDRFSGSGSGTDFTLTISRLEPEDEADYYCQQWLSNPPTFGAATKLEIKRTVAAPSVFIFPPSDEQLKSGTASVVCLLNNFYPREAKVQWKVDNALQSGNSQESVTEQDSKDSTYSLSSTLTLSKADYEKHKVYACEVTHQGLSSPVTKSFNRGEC
Sequence of Meditope enabled Ocaratuzumab (chain, as listed by the source, chain 2 of 2): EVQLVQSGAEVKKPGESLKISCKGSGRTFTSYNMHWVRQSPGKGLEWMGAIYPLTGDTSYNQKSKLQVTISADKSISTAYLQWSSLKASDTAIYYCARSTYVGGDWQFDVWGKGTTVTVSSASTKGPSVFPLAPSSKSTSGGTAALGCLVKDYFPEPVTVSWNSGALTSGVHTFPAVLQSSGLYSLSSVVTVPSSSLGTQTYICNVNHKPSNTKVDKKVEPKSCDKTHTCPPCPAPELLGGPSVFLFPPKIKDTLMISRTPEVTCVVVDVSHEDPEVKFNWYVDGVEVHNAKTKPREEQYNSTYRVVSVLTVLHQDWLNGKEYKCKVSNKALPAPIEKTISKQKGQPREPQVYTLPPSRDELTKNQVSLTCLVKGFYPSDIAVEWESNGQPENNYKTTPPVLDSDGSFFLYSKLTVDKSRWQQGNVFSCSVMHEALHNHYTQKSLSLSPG

Kd (MBI_CD19_1; (SAR3419) [1]): < 0.001 nM | Kd (MBI_CD19_2; (MOR208) [2]): 0.452 nM | Kd [3]: 3160 nM | Kd [4]: < 0.001 nM | Kd [5]: 1.88 nM | Kd (MBI_CD19_1; (SAR3419) [6]): < 0.001 nM | Kd (MBI_CD19_2; (MOR208) [7]): < 0.001 nM | Kd [8]: < 0.001 nM | Kd [9]: 2.62 nM | Kd (MBI_CD19_1; (SAR3419) [10]): 5.23 nM | Kd (MBI_CD19_2; (MOR208) [11]): < 0.001 nM | Kd [12]: 2.69 nM | Kd [13]: 1.63 nM
B1: Peptide 22: DM1 conjugated cQFD (cQFD-DM1) (peptide)
peptide: CQFDLSTRRLRC
modifications: not checked
